The values below come from the Human Domainome abundance scans (Beltran et al. 2025).

± gives the uncertainty stated by the source.

A short description of the data set: abundance fitness (aPCA) (normalised: wild type 0, dead -1); higher = more abundant; growth selection in yeast, the domain comes from the species named. As to conditions: Homo sapiens.
With “DnaJ homolog subfamily B member 1 D4M, P25685”, the abundance fitness is -0.196 ± 0.15.

For the substance “DnaJ homolog subfamily B member 1 D4P, P25685”, the abundance fitness is -0.712 ± 0.16.

In the case of “DnaJ homolog subfamily B member 1 D4R, P25685”, the abundance fitness was -0.151 ± 0.17.

In turn, “DnaJ homolog subfamily B member 1 D4S, P25685” showed an abundance fitness of -0.193 ± 0.19.

Substance “DnaJ homolog subfamily B member 1 D4T, P25685” gave an abundance fitness of -0.207 ± 0.18.

“DnaJ homolog subfamily B member 1 D4V, P25685” showed an abundance fitness of -0.433 ± 0.13.

Substance “DnaJ homolog subfamily B member 1 D4Y, P25685” gave an abundance fitness of -0.256 ± 0.19.

Turning to “DnaJ homolog subfamily B member 1 D17A, P25685”, the abundance fitness was -0.072 ± 0.096.

Regarding “DnaJ homolog subfamily B member 1 D17C, P25685”, the abundance fitness was found to be 0.031 ± 0.23.

“DnaJ homolog subfamily B member 1 D17E, P25685”: the abundance fitness was -0.095 ± 0.1.

For “DnaJ homolog subfamily B member 1 D17F, P25685”, the abundance fitness was -0.183 ± 0.12.

In turn, “DnaJ homolog subfamily B member 1 D17G, P25685” came in with an abundance fitness of -0.199 ± 0.087.

Take “DnaJ homolog subfamily B member 1 D17H, P25685”: the abundance fitness is -0.182 ± 0.13.

On to “DnaJ homolog subfamily B member 1 D17I, P25685”, for which the abundance fitness is -0.029 ± 0.076.

In turn, “DnaJ homolog subfamily B member 1 D17K, P25685” had an abundance fitness of -0.287 ± 0.14.

With “DnaJ homolog subfamily B member 1 D17L, P25685”, the abundance fitness stood at 0.038 ± 0.072.

In turn, “DnaJ homolog subfamily B member 1 D17M, P25685” registered an abundance fitness of -0.06 ± 0.089.

“DnaJ homolog subfamily B member 1 D17N, P25685”: the abundance fitness was -0.104 ± 0.12.

As for “DnaJ homolog subfamily B member 1 D17P, P25685”, the abundance fitness was -0.18 ± 0.071.

“DnaJ homolog subfamily B member 1 D17R, P25685” yielded an abundance fitness of -0.211 ± 0.084.

Turning to “DnaJ homolog subfamily B member 1 D17S, P25685”, the abundance fitness was -0.094 ± 0.073.

Turning to “DnaJ homolog subfamily B member 1 D17T, P25685”, the abundance fitness was -0.161 ± 0.11.

As to “DnaJ homolog subfamily B member 1 D17V, P25685”, the abundance fitness is -0.059 ± 0.053.

As for “DnaJ homolog subfamily B member 1 D17W, P25685”, the abundance fitness was -0.142 ± 0.15.

“DnaJ homolog subfamily B member 1 D17Y, P25685” came in with an abundance fitness of -0.09 ± 0.078.

On to “DnaJ homolog subfamily B member 1 D34A, P25685”, for which the abundance fitness was 0.058 ± 0.14.

Regarding “DnaJ homolog subfamily B member 1 D34C, P25685”, the abundance fitness was 0.009 ± 0.14.

Regarding “DnaJ homolog subfamily B member 1 D34E, P25685”, the abundance fitness was found to be 0.188 ± 0.33.

With “DnaJ homolog subfamily B member 1 D34F, P25685”, the abundance fitness was -0.249 ± 0.1.

With “DnaJ homolog subfamily B member 1 D34G, P25685”, the abundance fitness is -0.012 ± 0.11.

“DnaJ homolog subfamily B member 1 D34H, P25685” displayed an abundance fitness of -0.008 ± 0.11.

In the case of “DnaJ homolog subfamily B member 1 D34I, P25685”, the abundance fitness was -0.233 ± 0.1.

“DnaJ homolog subfamily B member 1 D34K, P25685” returned an abundance fitness of -0.046 ± 0.074.

“DnaJ homolog subfamily B member 1 D34L, P25685” came in with an abundance fitness of -0.042 ± 0.066.

Substance “DnaJ homolog subfamily B member 1 D34M, P25685” showed an abundance fitness of -0.053 ± 0.1.

Regarding “DnaJ homolog subfamily B member 1 D34N, P25685”, the abundance fitness is -0.039 ± 0.17.

“DnaJ homolog subfamily B member 1 D34P, P25685”: the abundance fitness was -0.285 ± 0.094.

“DnaJ homolog subfamily B member 1 D34Q, P25685”: the abundance fitness amounted to 0.054 ± 0.11.

For “DnaJ homolog subfamily B member 1 D34R, P25685”, the abundance fitness was -0.242 ± 0.089.

For the substance “DnaJ homolog subfamily B member 1 D34S, P25685”, the abundance fitness came to 0.075 ± 0.061.

In turn, “DnaJ homolog subfamily B member 1 D34V, P25685” displayed an abundance fitness of -0.022 ± 0.081.

Take “DnaJ homolog subfamily B member 1 D34W, P25685”: the abundance fitness is -0.02 ± 0.15.

In the case of “DnaJ homolog subfamily B member 1 D34Y, P25685”, the abundance fitness was -0.135 ± 0.081.

Regarding “DnaJ homolog subfamily B member 1 D53A, P25685”, the abundance fitness is -0.036 ± 0.088.

On to “DnaJ homolog subfamily B member 1 D53C, P25685”, for which the abundance fitness is -0.093 ± 0.37.

The substance “DnaJ homolog subfamily B member 1 D53E, P25685” displayed an abundance fitness of -0.398 ± 0.12.

Regarding “DnaJ homolog subfamily B member 1 D53F, P25685”, the abundance fitness was -0.249 ± 0.19.

Take “DnaJ homolog subfamily B member 1 D53G, P25685”: the abundance fitness is -0.098 ± 0.15.

Turning to “DnaJ homolog subfamily B member 1 D53H, P25685”, the abundance fitness was -0.262 ± 0.1.

For the substance “DnaJ homolog subfamily B member 1 D53I, P25685”, the abundance fitness is -0.224 ± 0.11.

“DnaJ homolog subfamily B member 1 D53K, P25685” showed an abundance fitness of -0.067 ± 0.11.

For “DnaJ homolog subfamily B member 1 D53L, P25685”, the abundance fitness was -0.058 ± 0.066.

Substance “DnaJ homolog subfamily B member 1 D53M, P25685” had an abundance fitness of -0.124 ± 0.09.

As for “DnaJ homolog subfamily B member 1 D53N, P25685”, the abundance fitness worked out at 0.035 ± 0.12.

In the case of “DnaJ homolog subfamily B member 1 D53P, P25685”, the abundance fitness is -0.709 ± 0.079.

Substance “DnaJ homolog subfamily B member 1 D53Q, P25685” displayed an abundance fitness of -0.279 ± 0.097.

Substance “DnaJ homolog subfamily B member 1 D53R, P25685” returned an abundance fitness of -0.132 ± 0.14.

Consider “DnaJ homolog subfamily B member 1 D53T, P25685”, for which the abundance fitness turned out to be 0.032 ± 0.086.

Turning to “DnaJ homolog subfamily B member 1 D53V, P25685”, the abundance fitness was -0.013 ± 0.093.

With “DnaJ homolog subfamily B member 1 D53W, P25685”, the abundance fitness is -0.405 ± 0.12.

Turning to “DnaJ homolog subfamily B member 1 D53Y, P25685”, the abundance fitness was -0.356 ± 0.077.

On to “DnaJ homolog subfamily B member 1 D57A, P25685”, for which the abundance fitness was -0.269 ± 0.088.

Substance “DnaJ homolog subfamily B member 1 D57C, P25685” showed an abundance fitness of -0.09 ± 0.098.

Substance “DnaJ homolog subfamily B member 1 D57E, P25685” registered an abundance fitness of -0.269 ± 0.14.

The substance “DnaJ homolog subfamily B member 1 D57F, P25685” had an abundance fitness of -0.668 ± 0.17.

“DnaJ homolog subfamily B member 1 D57G, P25685” had an abundance fitness of -0.298 ± 0.11.
